Measurements from patent US20050187147A1.
Square brackets hold non-standard residues; d marks the D form. Primed or numbered codes have the meaning given here. * marks the point of attachment. 10Ca = carbamate linkage conjugating the peptide-PEG to paclitaxel at C10; PEG(13) = PEG13 linker; Piv = CC(C)(C)C(=O)*; PXL = paclitaxel

Biological target: Human Akt kinase (Upstate #14-276) (human), P31749
Assay: cell-based or functional assay

Sequence of Human Akt kinase (Upstate #14-276) (human), P31749 (P31749 whole entry): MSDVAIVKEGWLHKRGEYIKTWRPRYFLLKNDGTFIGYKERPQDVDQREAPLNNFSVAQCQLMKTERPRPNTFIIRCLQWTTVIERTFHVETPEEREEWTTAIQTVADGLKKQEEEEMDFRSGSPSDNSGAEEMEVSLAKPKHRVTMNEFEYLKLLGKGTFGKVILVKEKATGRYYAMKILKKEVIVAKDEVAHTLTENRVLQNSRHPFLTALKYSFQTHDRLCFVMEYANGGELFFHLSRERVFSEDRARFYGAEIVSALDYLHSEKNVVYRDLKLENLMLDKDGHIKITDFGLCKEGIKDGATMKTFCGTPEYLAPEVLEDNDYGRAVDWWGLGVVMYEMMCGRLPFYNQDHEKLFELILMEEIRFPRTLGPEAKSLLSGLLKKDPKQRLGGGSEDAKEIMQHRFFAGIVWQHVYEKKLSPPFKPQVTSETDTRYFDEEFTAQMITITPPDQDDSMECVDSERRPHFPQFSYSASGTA

## Piv-GRPRTS[dS]FAEG-{PEG(13)-10Ca-PXL} [Pv-GRPRTSsFAEG-PEG(13)-10Ca-PXL]
  Ave. Akt Kinase Act. (% of parent peptide activity): 0
